# Measured values: the RNAGym collection of RNA variant scans (doi:10.7554/elife.90254)
# B1: OR4K15 (parent)
# chain: GUUAACGGUCAUAGGCCAUGGAAACUAGGAGCACCAUUUCGCUGCCAGUGAAGAAAUGAACAAAGAAAAUCUGGGCCAGGCAGGCAUCAAAAGAAAUAGUCUUGCGCUCAACCAGAAAGUCUGUAAUCAUUUUAAGGGUA
# Variants of: B1
# Assay: self-cleavage, relative activity (ratio to wild type); higher = more cleavage; in vitro, sequencing; the parent is a self-cleaving ribozyme
row,Variant,self-cleavage
1,U131A G138C,1.83
2,A114U U120C,0.03
3,A114U U120A,0.05
4,U120C U131A,0.52
5,U127A A129G,2.49
6,A114U A140G,0.08
7,C121A A126G,1.78
8,C121A,2.65
9,C121U,1.65
10,U120A U131C,1.22
11,A117U U124A,0.27
12,A117G A118C,0.24
13,U120A U133C,1.41
14,A118G A134G,0.71
15,A126G A140G,1.28
16,A126G A140U,1.58
17,U124C A140U,1.14
18,U122C U127A,2.22
19,A117G U132C,1.85
20,A117G U132A,1.62
21,U122C U130C,0.64
22,A114C A129G,0.01
23,C128U U130C,0.55
24,A118G A140C,1.36

row,Variant,self-cleavage
1,U122A A126G,0.67
2,G123U G136A,2.35
3,U122A U130C,0.8
4,A125U A135G,0.55
5,U120C U132A,1.42
6,U120C U132C,0.85
7,A116G U124A,0.69
8,A117U,0.59
9,A117C,0.55
10,A117G,1.4
11,A111U U120A,0.08
12,U127C A140G,0.73
13,U127A A135G,2.31
14,U127A A135U,2.12
15,A114G G115U,0.02
16,A118G A135G,1.15
17,A117U U122C,1.24
18,A117G A140U,1.12
19,A117G A140G,1.68
20,C112A,0.01
21,C112U,0.02
22,C112G,0.02
23,U120C A126G,0.27
24,A117G U139C,1.34

row,Variant,self-cleavage
1,A117G U139A,1.85
2,A117U U132C,0.88
3,A114G U120C,0.18
4,A125U U132C,1.97
5,A126G A129U,0.83
6,U120C U130C,0.3
7,A118U U131C,0.37
8,A126G U130C,0.61
9,A126G U130G,1.19
10,A117G A129U,1.01
11,A114G A140G,0.26
12,A114G A140U,0.41
13,U130A U139A,0.89
14,A114G A116G,0.1
15,A114U A135G,0.05
16,A114U A116U,0.03
17,A129G A140G,1.24
18,G115A A116G,0.23
19,U124C A134G,1.11
20,A116G A126G,0.12
21,A118G U120C,0.44
22,A125G U130C,0.53
23,A114G A118G,0.36
24,C113U U122C,0.08

row,Variant,self-cleavage
1,G115U A117G,0.39
2,U127A U139C,2.29
3,A116G G136A,1.65
4,A116G G136U,0.74
5,A126U U130C,1.08
6,A126G U139C,1.19
7,A118C,0.97
8,A118U,0.61
9,A118G,0.89
10,C113U A129G,0.01
11,A116C A129G,0.05
12,C113U U131C,0
13,C128U U131C,1.17
14,A118G U132C,0.18
15,A118G U132A,1.11
16,U130C U132A,1.4
17,U130C U132C,1.17
18,U130C U139C,1.09
19,A111U A134G,0.03
20,A118U U127A,0.97
21,C121U U131C,2.02
22,A118U U120C,0.08
23,A126G U133C,1.2
24,A114U A125U,0.08

row,Variant,self-cleavage
1,U131A U132A,0.14
2,U122A A125G,0.55
3,U124A A125G,0.91
4,C112A U127C,0.03
5,G115U A126U,0.25
6,A117G A126C,1.79
7,U131A,1.05
8,U131C,0.71
9,A118U U130G,0.71
10,A111G U132C,0.03
11,A111G U132A,0.02
12,U127A U130C,0.43
13,U122A U139C,0.94
14,U127A C128U,1.78
15,A111U,0.08
16,A118G U122C,1.04
17,U127A U133C,2.29
18,A117U U120C,0.83
19,A114G A134U,0.23
20,A118G U131C,0.63
21,A126G U131C,1.14
22,A116C U133C,0.28
23,C113U G136A,0.18
24,A118C U139A,1.24

row,Variant,self-cleavage
1,G115U U130C,0.07
2,U120G U122C,1.08
3,U122A C128A,1.32
4,A118U A135C,0.3
5,U122C A140C,1.25
6,A114G G138A,0.76
7,U122C A129G,0.46
8,A116G A117G,0.55
9,A116G A117C,0.1
10,A116U U124A,0.08
11,A116G U127A,0.72
12,A116G U127C,0.31
13,C113A U130C,0
14,A114C A126G,0.02
15,A117C A135G,0.2
16,A125U C128U,1.62
17,A126C U127C,0.21
18,U120C C128U,0.84
19,C113A A116G,0.01
20,U122A U127C,0.98
21,U124G A129C,0.33
22,G119A U139C,2.96
23,A114G A117U,0.4
24,C112U A117G,0.01

row,Variant,self-cleavage
1,U122A A140G,1.17
2,U122C A126G,0.76
3,A114G,0.45
4,A114U,0.06
5,A114C,0.04
6,C113U U130C,0.04
7,A117G U122A,2.35
8,A116U U132A,0.05
9,A114U U131C,0.02
10,A116U A129G,0.13
11,G115U A129U,0.03
12,A111U A118G,0.05
13,A114U U122A,0.04
14,A114U U122C,0.04
15,U122A U124A,0.14
16,U120C U127A,0.21
17,U127A U132C,1.55
18,U124A A126G,0.76
19,G115A U124C,0.05
20,G115A C121A,0.33
21,A116U G136A,0.07
22,A125U U133C,2.54
23,A117C U122C,0.4
